According to patent publication US20170174733A1 (Genentech, published 2017):
Where two headings read alike, the source gives them in different places.

Assays:
[1] = target: T1, human VEGF (human, UniProt P15692 27-191); experiment: cell-based or functional assay
[2] = target: T2, VEGF109 (UniProt P15692 214-315, biotinylated where loaded on streptavidin tips); experiment: BLI (OctetRED384): biotinylated VEGF109 on tips, monomeric variant in solution
T2 construct: range 8-109; also called VEGF8-109; biotinylated VEGF109
T2 sequence: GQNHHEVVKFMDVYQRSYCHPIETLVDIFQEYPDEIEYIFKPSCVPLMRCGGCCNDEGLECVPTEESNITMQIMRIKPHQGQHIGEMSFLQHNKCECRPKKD

[3] = target: T2, VEGF109; experiment: BLI (OctetRED384): biotinylated VEGF109 on tips
[4] = target: T1, human VEGF; experiment: cell-based or functional assay; remark: listed apart in the source
[5] = target: T2, VEGF109
[6] = target: T2, VEGF109; experiment: BLI (OctetRED384): biotinylated VEGF109 on SA sensor tips
[7] = target: T3, LRP6 E1E2 with a C-terminal Avi-tag and His6-tag (human, UniProt O75581 20-630, biotinylated (Avi-tag) where loaded on streptavidin tips; unlabeled where in solution); experiment: biolayer interferometry (OctetRED384), fitting view of five traces, LRP6-E1E2
T3 construct: domain: E1E2; also called LRP6 receptor fragment E1E2; biotinylated LRP6-E1E2; not shown: C-terminal Avi-tag and His6-tag
T3 sequence: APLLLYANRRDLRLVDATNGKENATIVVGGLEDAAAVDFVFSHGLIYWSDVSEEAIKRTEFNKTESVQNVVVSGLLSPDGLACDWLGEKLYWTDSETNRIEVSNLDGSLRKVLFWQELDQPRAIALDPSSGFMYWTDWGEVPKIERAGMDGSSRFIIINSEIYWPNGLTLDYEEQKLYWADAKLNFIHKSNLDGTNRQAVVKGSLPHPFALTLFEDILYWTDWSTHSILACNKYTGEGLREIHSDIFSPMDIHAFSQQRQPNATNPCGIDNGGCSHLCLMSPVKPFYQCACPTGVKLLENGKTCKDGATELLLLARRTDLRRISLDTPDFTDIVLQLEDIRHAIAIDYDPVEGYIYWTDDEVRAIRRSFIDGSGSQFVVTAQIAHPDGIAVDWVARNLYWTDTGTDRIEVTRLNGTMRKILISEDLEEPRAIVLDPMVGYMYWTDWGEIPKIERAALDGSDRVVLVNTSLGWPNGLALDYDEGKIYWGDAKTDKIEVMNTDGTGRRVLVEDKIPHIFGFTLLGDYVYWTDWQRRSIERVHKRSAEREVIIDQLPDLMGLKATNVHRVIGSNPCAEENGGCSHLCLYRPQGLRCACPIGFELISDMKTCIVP

[8] = target: T3, LRP6 E1E2 with a C-terminal Avi-tag and …; experiment: BLI (OctetRED384), monomeric variant
[9] = target: LRP6 on HEK293S cells (human, UniProt O75581 20-1613); experiment: cell-based or functional assay
[10] = target: T3, LRP6 E1E2 with a C-terminal Avi-tag and …; experiment: BLI on small-scale ExiProgen protein with C-terminal Avi-tag
[11] = target: T1, human VEGF; experiment: cell-based or functional assay; remark: listed apart in the source
[12] = target: T1, human VEGF; experiment: cell-based or functional assay; remark: listed apart in the source
[13] = target: T4, biotinylated VEGF165 (UniProt P15692 27-191); experiment: competition binding ELISA: blocks biotinylated VEGF165 binding to coated VEGFR1-Fc
T4 construct: range 1-165; also called VEGF1-165

[14] = target: T4, biotinylated VEGF165; experiment: competition binding ELISA: biotinylated VEGF165 premixed with the binder, then on coated VEGFR1-Fc (blocked partner), OD 450 nm

T1 sequence (P15692 other isoform, or with tags, fused parts or gaps limits assumed): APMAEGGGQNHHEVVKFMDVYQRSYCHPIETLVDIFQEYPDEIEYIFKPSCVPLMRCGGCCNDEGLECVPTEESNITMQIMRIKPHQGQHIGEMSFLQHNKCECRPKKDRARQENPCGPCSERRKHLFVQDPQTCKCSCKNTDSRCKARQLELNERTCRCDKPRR
T4 sequence (P15692 other isoform, or with tags, fused parts or gaps limits assumed): as above

B1: monomeric chagasin VEGF variant L4X6-7 (designed binder)
chain: MSHKVTKAHNGATLTVAVGELVEIQLPSNYFREGFAWYFEGGTKESPNESMFTVENKYFPHVQWGWGAGGTEHFHVTVKAAGTHAVNLTYMAPWVGPSRELERFTVYLKAN
- Inhibitory Activity (IC50, nM) against hVEGF in cell-based assays [1]: 65 nM
- Kd [2]: 150 nM
- fold improvement of Kd over the parental variant 4 [3]: 2.5 fold
- fold improvement of IC50 over the parental chagasin variant 4 [4]: 13 fold
- Kd [5]: 160 nM

B2: chagasin VEGF variant 66 (designed binder)
chain: MSHKVTKAHNGATLTVAVGELVEIQLPSNYYYDGFAWYFEGGTKESPNESMFTVENKYFPHYYNLGGRYTGAGGTEHFHVTVKAAGTHAVNLTYMGPWLGPSRVLERFTVYLKAN
notes: also called clone 66; not shown: C-terminal His6-tag and Avi-tag of the ExiProgen small-scale expression
- binding result [6]: binds

B3: chagasin LRP6 variant H2 (designed binder)
chain: MSHKVTKAHNGATLTVAVGELVEIQLPSNPQTGFAWYFEGGTKESPNESMFTVENKYFPSNKVKGVPGFGAGGTEHFHVTVKAAGTHAVNLTYMGPWTGASQEPERFTVYLKAN
notes: also called clone H2
- Kd [7]: 0.39 nM
- Kd [8]: 0.4 nM
- IC50, inhibition of Wnt1 signaling (luciferase reporter, HEK293S cells transfected by WNT1) [9]: 31 nM

B4: chagasin LRP6 variant S15 (designed binder)
chain: MSHKVTKAHNGATLTVAVGELVEIQLPSNADGFAWYFEGGTKESPNESMFTVENKYFPSNSTKRGAGGTEHFHVTVKAAGTHAVNLTYMRREKGSTLVVERFTVYLKAN
modifications: biotinylated at the Avi-tag (BirA)
notes: not shown: C-terminal His6-tag and Avi-tag (ExiProgen small-scale expression)
- binding result [10]: binds

B5: GST-fused chagasin VEGF variant 4-66-F6 (designed binder)
chain: MSHKVTKAHNGATLTVAVGELVEIQLPSNYFYDGFAWYFEGGTKESPNESMFTVENKYFPNDPGSRLSGAGGTEHFHVTVKAAGTHAVNLTYMAPWLGPSRVLERFTVYLKAN
notes: also called GST-Variant 4; variant 4 as a GST-fusion protein; not shown: N-terminal His6-GST-tag and TEV cleavage site (pET52b backbone)
- Inhibitory activity (IC50, nM) against VEGF in cell-based assays [11]: 28 nM
- Inhibitory activity (IC50, nM) against VEGF in cell-based assays [12]: 73 nM
- IC50, inhibition of VEGF-dependent KDR phosphorylation on KDR-expressing CHO cells [4]: 72 nM
- IC50 [13]: 13 nM
- IC50 [14]: 14 nM
